The data set in a line: yeast display, Sf9 membrane polyspecificity reagent, FACS + sequencing; frameworks hold sequencing errors. The gist of the method: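 A nanobody's polyreactivity label depends on the gate it was sorted from. Yeast display cells were stained with 10% biotinylated, detergent-solubilized Sf9 membrane reagent for 1 hour at 4 °C, enriched on streptavidin microbeads and sorted by FACS. The low and high (top ~1%) gates were set on anti-HA fluorescence for expression and streptavidin fluorescence for reagent binding.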
On to “QVQLQESGGGLVQAGGSLRLSCAASGTISPLPAMGWYRQAPGKEREFVAGIDTGAITNYADSVKGRFTISRDNAKNTVYLQMNSLKPEDTAVYYCAVFPAAYDYYERYYTYWGQGTQVTVSS”, for which the “polyreactivity (PSR sort gate)” value is “high polyreactivity”.
The value for “QVQLQESGGGLVQAGGSLRLSCAASGTISPLPAMGWYRQAPGKEREFVAGIDTGAITNYADSVKGRFTISRDNAKNTVYLQMNSLKPVDTAVYYCAVFPAAYDYYERYYTYWGQGTQVTVSS” was “low polyreactivity”; that for “QVQLQESGGGLVQAGGSLRLSCAASGTISQEDWKGWYRQAPGKEREFVAAIGLGSNTNYADSLKGRFTISRDNAKNTVYLQMNSLKQEDTAVYYCAVSVWQYSDHVYRGQGTQVTVSS” was “low polyreactivity”.
Regarding “QVQLQESGGGLVQAGGSLRLSCAASGTISVHASMGWYRQAPGKERELVAGITDGANTYYADSVKGRFTISRDNSKNTVYLQMNSLKPEDTAVYYCAAYYGTEVHFTYWGQGTQVTVSS”, the “polyreactivity (PSR sort gate)” value was “low polyreactivity”.
With “QVQLQESGGGLVQAGGSLRLSCAASGTISYAPHMGWYRQAPGKERELVAGITIVGTTYYADSVKGRFTISRDNAKNTVYLQMNSLSPGDTAVYYCAAHSEQYTPFYYWGQGTQVTVSS”, the “polyreactivity (PSR sort gate)” value was “low polyreactivity”.
In the case of “QVQLQESGGGLVQAGGSLRLSCAASGTITVLYKMGWFRQAPGKEREFFASINYGTSTYYADSVKGRFTVSRDSAKNTVYLQMISLKPEDTAVYYGAAAYRWQDVYRYWGQVTQVTVSS”, the “polyreactivity (PSR sort gate)” value is reported as “low polyreactivity”.
For “QVQLQESGGGLVQAGGSLRLSCAASGTITVLYKMGWFRQAPGKEREFVASINYGTSTYYADSVKGRFTVSRDSAKNSVYLQMNSLKPEDTAVYYCAAAYRWQDVYRYWGQGTQVTVSS”, the “polyreactivity (PSR sort gate)” value is on record as “low polyreactivity”.
In the case of “QVQLQESGGGLVQAGGSLRLSCAASGYISHADEMGWYRQAPGKDHELVASISNGGSTNYADSVKGRFTISRDHAKNTVYLQMNSLNSEDTAVYYCAAWTGQVDIHYYWGQGTQVTVSS”, the “polyreactivity (PSR sort gate)” value is recorded as “low polyreactivity”.
On to “QVQLQESGGGLVQAGGSLRLSCAASGYISHADEMGWYRQAPGKEHELVASISNGGSTNYADSVKGRFTISRDNAKNPVNLQMNSLKSEDTAVYYCAALTGQVAIHYYWGQGTQVTVSS”, for which the “polyreactivity (PSR sort gate)” value was “low polyreactivity”.
On to “QVQLQESGGGLVQAGGSLRLSCAASGYISSWYPMGWYRQAPGKEREFVATIAPRATTYYADSVKGRFTISRDYAKNTVYLQMNSLKPEDTAVYYCAAGPENNDVYSYWGQGTQVTVSS”, for which the “polyreactivity (PSR sort gate)” value is listed as “low polyreactivity”.
On to “QVQLQESGGGLVQAGGSLRLSCAASGYISTFSSEMGWYRQAPGKERELVASIAPGCTTSYADSVKGRFTISRDNAKNTVYLQMNSLKPEDTAVYYCAVDYTVPASFGYWGQGTQVTVSS”, for which the “polyreactivity (PSR sort gate)” value is given as “high polyreactivity”.
In the case of “QVQLQESGGGLVQAGGSLRLSCAASGYISWYSEMGWYRQAPGKEREFVATITCGTTTNYAVSVKGRFTISRDNAKNTVYLQKNSLKPEDTAVYYCAVHDARHYEFDYWGQGTQVTVSS”, the “polyreactivity (PSR sort gate)” value is listed as “high polyreactivity”.
As for “QVQLQESGGGLVQAGGSLRLSCAASSNNSTLDVKGWYRQAPGKEREFVASIGSGGITNYADSVKGRFTISRDNAKNTVYLQMNSLKPEDTAVYYCAVLNQAYTDLIYWGQGTQVTVSS”, the “polyreactivity (PSR sort gate)” value is “high polyreactivity”.
With “QVQLQESGGGLVQAGGSLRLSCAESGSISRYYDMGWYRQAPGKEREFVAGISGGAITYYADSVKGRFTISRDNAKNTVYLQMNSLKPEDTAVYYCAADTGVYQYHSYWGQGTQVTVSS”, the “polyreactivity (PSR sort gate)” value is “low polyreactivity”.
On to “QVQLQESGGGLVQAGGSLRLSCAESGTIFRISDMGSYRQAPGKEREFVASITYGANTYYADSGKGRFTISRDNAKNTVYLQMNSLKPEDTAVYYCAVPPVKETILDYWGQGTQVTVCS”, for which the “polyreactivity (PSR sort gate)” value is given as “low polyreactivity”.
The same measure for “QVQLQESGGGLVQAGGSLRLSCASSGSISGPHVMGWYRQAPGKEREFVAAINVGANTYYADNVKGRFTISRDNAKNTVYLQMNSLKPEDTAVYYCAAVYYGDIGHEYWGQGTQVTVSC”: “low polyreactivity”.
Take “QVQLQESGGGLVQAGGSLRLSCASSGTISPLPAMGWYRQAPGKEREYVAGIDTGAITNYADSVKGRFTISRDNAKNTVYLQMNSLQPEDTAVYYCAVFPAAYDYYESYYTYWGQGTQVTVSS”: the “polyreactivity (PSR sort gate)” value is given as “low polyreactivity”.
The value for “QVQLQESGGGLVQAGGSLRLSCAVSGTIFFPLDMGWYRQAPGRELEYVAAIAEGTSTYYADSVKGRFTISRDNAKNTVYPQMYSLKPEDTAVYYCAAYRSTPQQFHYWGQGTQVTVSS” was “high polyreactivity”; that for “QVQLQESGGGLVQAGGSLRLSCEASCYISDVNDMGWYRQAPGKEREFVAGFGYGGITNYADSVKGRFTISRDNAKNTVYLQMNSLKPKDSAVYNCAVHWGPDRGLYYWGQGTQVTVSS” was “high polyreactivity”.
As to “QVQLQESGGGLVQAGGSLRMSCAARGTIFWQWAMGWYCQAPGKERELVASISSGGTTYHADSVKGRFTISRDNAKNTVYLQMNSLKPEDTAVYYCNAPNWSVAYVYITQEMDYWGQGTQVTVSS”, the “polyreactivity (PSR sort gate)” value is “low polyreactivity”.
For the sequence “QVQLQESGGGLVQAGGSLRMSCASSGTIFRISDMGSYRQAPGKDSEFVAAITYGANTYYADSGKGRFTISRDNAKNTVYLQMNSLKPEDTAVYYCAVPPVKETILDYWGQGTQVTVSS”, the “polyreactivity (PSR sort gate)” value is “low polyreactivity”.
“QVQLQESGGGLVQAGGSLRPRCAPAGTIFLSVNMGWYRHAPGEEREFVASITQGATTNYADSLIGRFTISRDNAKNTVYLQMNCQKPEDTAVYYCAAYPRFYGGKYGEYGYWGQGTQVTVSS”: the “polyreactivity (PSR sort gate)” value is reported as “high polyreactivity”.
On to “QVQLQESGGGLVQAGGSLRPSCAASGSISDGVPMGWYRQAPGEERELVATTVLGATTNYADSVKGRFTISRGNAKYTVYLQMNSLKPEETAVYYCAAPLRYDKGFSYWGQGTQVTVSS”, for which the “polyreactivity (PSR sort gate)” value is listed as “low polyreactivity”.
Consider “QVQLQESGGGLVQAGGSLRQSCAASGSIFKVVDMGLYRQAPAKEREFVATIGEGGNTYYADSVKGRFTISRDNAKNTVYLQMNSLKPEDTAVYFYAVVLGSSYSYTYWGQGTQVTVSS”, for which the “polyreactivity (PSR sort gate)” value is “low polyreactivity”.
“QVQLQESGGGLVQAGGSLRQSCASSGYIFPYNSMGWYRQAPGKERGLVACIAAGTTTNYADSVKGRFTISRDNAKNTVYLQMNSLKPEDAAVYYCAALNAFNTGHWYWGQGTQVTVSS”: the “polyreactivity (PSR sort gate)” value is reported as “low polyreactivity”.
Turning to “QVQLQESGGGLVQAGGSLRQSCEASGYIFPYYSMGWYRQAPGKERGLVACIAAGTTTNYADSVKVRFTISRDNAKNTVYLQMNSLKPEDAAVYYCAALNAFNPGHWYWGQGSQVTVSS”, the “polyreactivity (PSR sort gate)” value was “low polyreactivity”.
For “QVQLQESGGGLVQAGGSLRQSYAASGYIFPSLAMGWYRQAPGKEREFVAAIGRGSTNNYADSVKGRFTISRDNAKNTAFQHMKSLKPEDTAVYYCAAAASPLTRHLYWGQGTQVSVSS”, the “polyreactivity (PSR sort gate)” value is “low polyreactivity”.
For “QVQLQESGGGLVQAGGSLRQSYAASGYIFPSLAMGWYRQAPGKEREFVAAIGRGSTNNYADSVKGRFTISRDNAKNTAYLQMNSLKPEDTAVYYCAAAASPLNRHLYWGQGTQVTVSS”, the “polyreactivity (PSR sort gate)” value is listed as “low polyreactivity”.
For “QVQLQESGGGLVQAGGSLRQSYAASGYIFPSLAMGWYRQAPGKEREFVAAIGRGSTNNYEDSVKGRFTISRDNAKNTAYQQMNRLKPEDTAVYYCAAAASPLTRDLYWGQGTQVTVSS”, the “polyreactivity (PSR sort gate)” value is given as “low polyreactivity”.
Turning to “QVQLQESGGGLVQAGGSLRQSYAASGYIFPSLAMGWYRQAPGKESEFVAAIGRGSTNNYADSVKGRFTISRDNAKNTAYQQMNSLKPEDTAVYYCAAAASPLTRHLYWGQGTQVTVSS”, the “polyreactivity (PSR sort gate)” value was “low polyreactivity”.
In the case of “QVQLQESGGGLVQAGGSLRQSYAASGYIFPYLAMGWYRQAPGKEREFVAAIGRGSTNNYADSVKGRFTISRDNAKNTAYQQMNSLKPEDTAVYYCAGAASPLTRHLYWGQGNQVTVSS”, the “polyreactivity (PSR sort gate)” value is “low polyreactivity”.
Consider “QVQLQESGGGLVQAGGSLRRSCAASGSIFSHWAMGWYRQTPGKERELVASITAGGNTNYADSVKGRFTISRDNAKNTVYLPMDSLKPEDTAVYYCAADGYYGAWDLEYYYWGQGTQVTVSS”, for which the “polyreactivity (PSR sort gate)” value was “low polyreactivity”.
As for “QVQLQESGGGLVQAGGSMRLSCAASGSISELRPMGWYRQAPCKQRELDAGISTGGSTNYADSVKGRFTISRDNAKNTVYLQMNSLKPEDTAVYYCASASYGEGTYDYWGQGTQVTVRS”, the “polyreactivity (PSR sort gate)” value is recorded as “high polyreactivity”.
Take “QVQLQESGGGLVQAGGSPRLSCAASDNIFPDSVMCWYRQAPGKERELVATIGFGATTNYADSVKGRFTISRDNAKNTVYLQMNSLKPEDTAVYYCAADPLIYEYFCYWGQGSQVTVSS”: the “polyreactivity (PSR sort gate)” value is “low polyreactivity”.
Consider “QVQLQESGGGLVQAGGSQRLSCAASGYIFYFQYMGWYRQAPGKEREFVAAISDGANTNYADSVKGRFTISRDNAKNTEYLQMNSLKPEDTAVYYCAVYADEKYYYIYWGQGTQVTVSS”, for which the “polyreactivity (PSR sort gate)” value is on record as “low polyreactivity”.
With “QVQLQESGGGLVQAGGTITLGYYMGWYRQAPGKEREFVAGIDTGAITYYADSVKGRFTNSRDNAKNTVYLQMNSLKPEDTAVYYCAAIQTHTYAHSYCGQGTQVTVSS”, the “polyreactivity (PSR sort gate)” value is on record as “high polyreactivity”.
For the sequence “QVQLQESGGGLVQAGGTLRLSCAASGSIYDDTYMGWYRQAPGKERELVATIDSGSTTNYADSVKGRITISRDNAKKTVYLQMNSLKPEDTAVYYCAAADSHIDYFDYWGQGTQVTVSS”, the “polyreactivity (PSR sort gate)” value was “low polyreactivity”.
The value for “QVQLQESGGGLVQAGGTLRLSCAVSGTIFFPLDMGWYRQAPGREREYVAAIAEGTSTYYADSVKGRFTISRDNAKNTVFPQMYSLKPEDTAVYYCAAYRSTPQQFHYWGQGTQVTVSS” was “high polyreactivity”; that for “QVQLQESGGGLVQARGSLRLSCAASGYISHADEMGWYRQAPGKEHELVASFRNGGSTNYADSVKGRFTISRDNAKNTVYLQMNSLKSEDTAVYYCAAWTGQVDIHSYWCQGTQVTVSS” was “low polyreactivity”.
On to “QVQLQESGGGLVQASGSIFHEPNMCWYRQAPGKERELVAGISSGANTYYADSVKGRFTISRDNAKNTVYLQMNSLKPEDTAVYHCAVVVHLYTELRYWGQDTQVTVSS”, for which the “polyreactivity (PSR sort gate)” value is on record as “high polyreactivity”.
For the sequence “QVQLQESGGGLVQASGSLRLSCASSGNIFPDYVMAWYRLAPGKEREFVANITGGSTTNYADSVKGRFTISRDNAKNTVDLQMNSLTPEDTAVYYCAVNFGTVVLYLYWGQGTQVSVSS”, the “polyreactivity (PSR sort gate)” value was “high polyreactivity”.

The values above are taken from the nanobody polyreactivity screen of Harvey et al. (2022).
